Source: PMC9482650, “Quantitative fragmentomics allow affinity mapping of interactomes” (Nature Communications, 2022)

Experiments:
Experiment in all cases: holdup assay
Parameters in all cases: key: below the threshold = too weak to quantify, mostly under pKd 3.1 to 4
Details in all cases: plain residues with an end cap or a label only (N-terminal biotin on a linker: ado-ado)
ARHGEF12, Q9NZN5-2 = molecular target: ARHGEF12, Q9NZN5-2
CARD11, Q9BXL7 = molecular target: T1, CARD11, Q9BXL7
T1 sequence (Q9BXL7 662-765, limits assumed, looked up): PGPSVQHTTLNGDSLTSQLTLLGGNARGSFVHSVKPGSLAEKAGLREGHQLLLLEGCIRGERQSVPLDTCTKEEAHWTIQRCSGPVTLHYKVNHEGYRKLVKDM

DLG1_3, Q12959 = molecular target: DLG1_3, Q12959
FRMPD1, Q5SYB0 = molecular target: T2, FRMPD1, Q5SYB0
T2 sequence (Q5SYB0 52-145, limits assumed, looked up): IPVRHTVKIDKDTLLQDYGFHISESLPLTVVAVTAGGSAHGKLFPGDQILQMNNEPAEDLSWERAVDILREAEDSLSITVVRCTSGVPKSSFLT

GIPC2, Q8TF65 = molecular target: GIPC2, Q8TF65
GRIP1_2, Q9Y3R0 = molecular target: T3, GRIP1_2, Q9Y3R0
T3 sequence (Q9Y3R0 145-248, limits assumed, looked up): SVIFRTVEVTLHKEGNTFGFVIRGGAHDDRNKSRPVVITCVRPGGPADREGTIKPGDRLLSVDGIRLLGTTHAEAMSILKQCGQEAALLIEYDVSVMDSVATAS

GRIP2_4, Q9C0E4 = molecular target: GRIP2_4, Q9C0E4
HTRA1, Q92743 = molecular target: HTRA1, Q92743
HTRA4, P83105 = molecular target: T4, HTRA4, P83105
T4 sequence (P83105 378-476, limits assumed, looked up): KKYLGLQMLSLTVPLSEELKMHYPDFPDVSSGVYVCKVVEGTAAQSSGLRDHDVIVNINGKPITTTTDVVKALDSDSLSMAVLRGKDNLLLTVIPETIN

Inadl_5, Q8NI35 = molecular target: Inadl_5, Q8NI35
Inadl_6, Q8NI35 = molecular target: Inadl_6, Q8NI35
LDB3, O75112 = molecular target: LDB3, O75112
LNX1_3, Q8TBB1 = molecular target: LNX1_3, Q8TBB1
MAGI2_3, Q86UL8 = molecular target: MAGI2_3, Q86UL8
MAGI2_4, Q86UL8 = molecular target: MAGI2_4, Q86UL8
MAGI2_5, Q86UL8 = molecular target: MAGI2_5, Q86UL8
NHERF3_3, Q5T2W1 = molecular target: T5, NHERF3_3, Q5T2W1
T5 sequence (Q5T2W1 238-333, limits assumed, looked up): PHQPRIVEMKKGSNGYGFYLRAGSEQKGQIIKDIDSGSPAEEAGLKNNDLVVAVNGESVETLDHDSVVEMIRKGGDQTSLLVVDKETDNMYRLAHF

NHERF3_4, Q5T2W1 = molecular target: T6, NHERF3_4, Q5T2W1
T6 sequence (Q5T2W1 373-468, limits assumed, looked up): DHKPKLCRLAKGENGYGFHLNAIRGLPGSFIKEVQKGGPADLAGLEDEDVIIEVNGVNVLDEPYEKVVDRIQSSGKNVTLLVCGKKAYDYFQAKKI

NHERF4_2, Q86UT5 = molecular target: NHERF4_2, Q86UT5
PDZD2_2, O15018 = molecular target: T7, PDZD2_2, O15018
T7 sequence (O15018 329-429, limits assumed, looked up): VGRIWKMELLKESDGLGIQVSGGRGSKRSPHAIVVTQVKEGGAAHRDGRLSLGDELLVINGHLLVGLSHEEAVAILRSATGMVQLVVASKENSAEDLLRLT

PICK1, Q9NRD5 = molecular target: PICK1, Q9NRD5
PTPN3, P26045 = molecular target: PTPN3, P26045
SCRIB_2, Q14160 = molecular target: SCRIB_2, Q14160
SIPA1L2, Q9P2F8 = molecular target: T8, SIPA1L2, Q9P2F8
T8 sequence (Q9P2F8 945-1036, limits assumed, looked up): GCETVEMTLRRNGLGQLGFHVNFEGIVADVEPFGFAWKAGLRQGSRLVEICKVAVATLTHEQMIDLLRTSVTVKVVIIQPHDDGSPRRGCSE

SNTA1, Q13424 = molecular target: T9, SNTA1, Q13424
T9 sequence (Q13424 82-180, limits assumed, looked up): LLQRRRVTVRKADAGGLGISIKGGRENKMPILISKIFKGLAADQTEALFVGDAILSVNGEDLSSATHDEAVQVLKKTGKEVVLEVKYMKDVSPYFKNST

SNTG1, Q9NSN8 = molecular target: T10, SNTG1, Q9NSN8
T10 sequence (Q9NSN8 52-150, limits assumed, looked up): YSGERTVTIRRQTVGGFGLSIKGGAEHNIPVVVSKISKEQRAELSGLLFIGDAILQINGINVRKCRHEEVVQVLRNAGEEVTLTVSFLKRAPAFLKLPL

TJP3_3, O95049 = molecular target: T11, TJP3_3, O95049
T11 sequence (O95049 375-456, limits assumed, looked up): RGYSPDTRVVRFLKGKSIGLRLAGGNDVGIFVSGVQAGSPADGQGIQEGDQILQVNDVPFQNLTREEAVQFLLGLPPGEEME

Sequence of PICK1, Q9NRD5 (Q9NRD5 17-115): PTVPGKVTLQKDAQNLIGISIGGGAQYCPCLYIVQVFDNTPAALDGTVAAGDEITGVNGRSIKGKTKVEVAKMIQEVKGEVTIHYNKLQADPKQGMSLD
Sequence of DLG1_3, Q12959 (Q12959 457-571): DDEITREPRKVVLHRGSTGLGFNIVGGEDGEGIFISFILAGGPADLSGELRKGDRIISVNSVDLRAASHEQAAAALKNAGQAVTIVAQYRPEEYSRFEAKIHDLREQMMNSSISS
Sequence of ARHGEF12, Q9NZN5-2 (Q9NZN5 other isoform, or with tags, fused parts or gaps): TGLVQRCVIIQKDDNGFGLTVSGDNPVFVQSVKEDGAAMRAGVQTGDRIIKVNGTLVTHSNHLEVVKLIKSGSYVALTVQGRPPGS
Sequence of Inadl_6, Q8NI35 (Q8NI35 1058-1167): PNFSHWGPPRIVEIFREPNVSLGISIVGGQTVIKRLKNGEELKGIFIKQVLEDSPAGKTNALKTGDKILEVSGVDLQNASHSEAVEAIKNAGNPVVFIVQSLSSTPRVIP
Sequence of NHERF4_2, Q86UT5 (Q86UT5 220-308): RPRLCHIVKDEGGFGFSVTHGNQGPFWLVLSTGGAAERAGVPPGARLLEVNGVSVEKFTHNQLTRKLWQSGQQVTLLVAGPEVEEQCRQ
Sequence of GIPC2, Q8TF65 (Q8TF65 112-203): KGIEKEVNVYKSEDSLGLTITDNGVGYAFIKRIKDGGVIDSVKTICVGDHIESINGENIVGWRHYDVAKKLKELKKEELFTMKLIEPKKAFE
Sequence of MAGI2_4, Q86UL8 (Q86UL8 772-865): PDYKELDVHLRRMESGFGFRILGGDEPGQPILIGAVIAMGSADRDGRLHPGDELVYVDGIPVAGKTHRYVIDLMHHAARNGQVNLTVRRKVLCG
Sequence of LDB3, O75112 (O75112 1-94): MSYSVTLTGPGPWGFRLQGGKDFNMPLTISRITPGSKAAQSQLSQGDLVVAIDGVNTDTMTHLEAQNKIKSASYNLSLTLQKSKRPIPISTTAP
Sequence of SCRIB_2, Q14160 (Q14160 857-960): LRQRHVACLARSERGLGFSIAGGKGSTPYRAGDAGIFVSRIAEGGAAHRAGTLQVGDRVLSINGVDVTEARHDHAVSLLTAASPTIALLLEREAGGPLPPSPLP
Sequence of MAGI2_3, Q86UL8 (Q86UL8 600-682): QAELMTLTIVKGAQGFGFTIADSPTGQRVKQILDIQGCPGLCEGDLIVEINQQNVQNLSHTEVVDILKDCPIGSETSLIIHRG
Sequence of LNX1_3, Q8TBB1 (Q8TBB1 500-596): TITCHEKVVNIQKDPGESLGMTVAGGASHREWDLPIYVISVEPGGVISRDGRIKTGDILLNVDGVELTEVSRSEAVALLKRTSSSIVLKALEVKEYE
Sequence of PTPN3, P26045 (P26045 505-587): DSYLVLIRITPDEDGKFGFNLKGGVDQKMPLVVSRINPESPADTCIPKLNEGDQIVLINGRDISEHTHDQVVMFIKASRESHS
Sequence of GRIP2_4, Q9C0E4 (Q9C0E4 446-548): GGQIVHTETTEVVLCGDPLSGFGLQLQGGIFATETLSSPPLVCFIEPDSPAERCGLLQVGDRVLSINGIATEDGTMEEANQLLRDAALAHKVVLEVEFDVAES
Sequence of MAGI2_5, Q86UL8 (Q86UL8 915-1017): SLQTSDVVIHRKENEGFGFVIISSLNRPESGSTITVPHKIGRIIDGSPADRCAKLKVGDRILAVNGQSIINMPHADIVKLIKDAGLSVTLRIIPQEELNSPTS
Sequence of Inadl_5, Q8NI35 (Q8NI35 673-780): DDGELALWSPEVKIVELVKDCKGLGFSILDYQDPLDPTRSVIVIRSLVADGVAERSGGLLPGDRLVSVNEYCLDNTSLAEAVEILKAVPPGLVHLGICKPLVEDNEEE
Sequence of HTRA1, Q92743 (Q92743 360-477): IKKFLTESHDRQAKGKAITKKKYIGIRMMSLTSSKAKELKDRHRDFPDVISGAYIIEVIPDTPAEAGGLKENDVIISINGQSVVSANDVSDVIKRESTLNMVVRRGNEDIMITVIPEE

Binder	pKd (ARHGEF12, Q9NZN5-2)	pKd (CARD11, Q9BXL7)	pKd (DLG1_3, Q12959)	pKd (FRMPD1, Q5SYB0)	pKd (GIPC2, Q8TF65)	pKd (GRIP1_2, Q9Y3R0)	pKd (GRIP2_4, Q9C0E4)	pKd (HTRA1, Q92743)	pKd (HTRA4, P83105)	pKd (Inadl_5, Q8NI35)	pKd (Inadl_6, Q8NI35)	pKd (LDB3, O75112)	pKd (LNX1_3, Q8TBB1)	pKd (MAGI2_3, Q86UL8)	pKd (MAGI2_4, Q86UL8)	pKd (MAGI2_5, Q86UL8)	pKd (NHERF3_3, Q5T2W1)	pKd (NHERF3_4, Q5T2W1)	pKd (NHERF4_2, Q86UT5)	pKd (PDZD2_2, O15018)	other results
PKRSFIESNV [TANC1, Q9C0D5]	3.47	below the threshold	4.32	below the threshold	3.83	below the threshold	below the threshold	below the threshold	3.92	below the threshold	below the threshold	below the threshold	below the threshold	3.98	below the threshold	4.41	below the threshold	below the threshold	below the threshold	4.81	pKd (PICK1, Q9NRD5): 4.14; pKd (PTPN3, P26045): 4.57; pKd (SCRIB_2, Q14160): 4.88; pKd (SIPA1L2, Q9P2F8): below the threshold; pKd (SNTA1, Q13424): 4.77; pKd (SNTG1, Q9NSN8): 4.95; pKd (TJP3_3, O95049): below the threshold
QKNRKAQEDL [CES3, Q6UWW8]	below the threshold	3.5	below the threshold	below the threshold	below the threshold	below the threshold	below the threshold	below the threshold	below the threshold	below the threshold	below the threshold	below the threshold	below the threshold	3.83	below the threshold	below the threshold	below the threshold	below the threshold	below the threshold	below the threshold	pKd (PICK1, Q9NRD5): 4; pKd (PTPN3, P26045): 3.74; pKd (SCRIB_2, Q14160): below the threshold; pKd (SIPA1L2, Q9P2F8): below the threshold; pKd (SNTA1, Q13424): below the threshold; pKd (SNTG1, Q9NSN8): below the threshold; pKd (TJP3_3, O95049): below the threshold
DDEDRLVIEI [ZNF831, Q5JPB2]	3.53	below the threshold	below the threshold	below the threshold	below the threshold	below the threshold	below the threshold	5.7	4.97	below the threshold	below the threshold	3.57	below the threshold	below the threshold	below the threshold	below the threshold	below the threshold	below the threshold	below the threshold	3.75	pKd (PICK1, Q9NRD5): below the threshold; pKd (PTPN3, P26045): below the threshold; pKd (SCRIB_2, Q14160): below the threshold; pKd (SIPA1L2, Q9P2F8): below the threshold; pKd (SNTA1, Q13424): below the threshold; pKd (SNTG1, Q9NSN8): below the threshold; pKd (TJP3_3, O95049): below the threshold
IPLDGETEEL [MYOZ1, Q9NP98]	below the threshold	below the threshold	below the threshold	below the threshold	below the threshold	below the threshold	below the threshold	3.99	below the threshold	below the threshold	below the threshold	4.46	below the threshold	below the threshold	below the threshold	below the threshold	below the threshold	below the threshold	below the threshold	below the threshold	pKd (PICK1, Q9NRD5): below the threshold; pKd (PTPN3, P26045): 4.04; pKd (SCRIB_2, Q14160): below the threshold; pKd (SIPA1L2, Q9P2F8): below the threshold; pKd (SNTA1, Q13424): below the threshold; pKd (SNTG1, Q9NSN8): below the threshold; pKd (TJP3_3, O95049): below the threshold
QMNQTLPVQV [EPHB3, P54753]	below the threshold	below the threshold	3.76	below the threshold	below the threshold	3.58	below the threshold	4.11	4.36	4.1	below the threshold	below the threshold	3.61	3.64	3.7	below the threshold	below the threshold	3.48	3.52	below the threshold	pKd (PICK1, Q9NRD5): 4.35; pKd (PTPN3, P26045): 3.97; pKd (SCRIB_2, Q14160): below the threshold; pKd (SIPA1L2, Q9P2F8): 3.5; pKd (SNTA1, Q13424): below the threshold; pKd (SNTG1, Q9NSN8): below the threshold; pKd (TJP3_3, O95049): below the threshold
